Reference: paper PMC9352680, “A comprehensive thermodynamic model for RNA binding by the Saccharomyces cerevisiae Pumilio protein PUF4”

T1: PUF4 RNA-binding domain (Saccharomyces cerevisiae, UniProt P25339 537-888)
T1 sequence: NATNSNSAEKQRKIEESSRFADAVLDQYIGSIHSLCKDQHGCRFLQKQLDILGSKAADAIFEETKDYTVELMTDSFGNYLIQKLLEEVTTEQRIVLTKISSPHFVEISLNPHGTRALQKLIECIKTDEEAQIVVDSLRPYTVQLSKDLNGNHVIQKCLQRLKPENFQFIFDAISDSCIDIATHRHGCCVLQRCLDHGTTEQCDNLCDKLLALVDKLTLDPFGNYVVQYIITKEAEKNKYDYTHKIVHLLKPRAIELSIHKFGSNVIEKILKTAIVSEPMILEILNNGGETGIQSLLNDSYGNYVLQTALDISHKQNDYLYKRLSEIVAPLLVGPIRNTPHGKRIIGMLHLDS


Target: T1, PUF4 RNA-binding domain
Assay: Mg; RNA-MaP; 20 mM Na-HEPES pH 7.4, 30 mM KOAc, 0.75 mM MgCl2, 0.1% Tween-20, 5% glycerol, 0.1 mg/mL BSA, 2 mM DTT; 25 C; 0.0125-409.6 nM protein
Details: tags: N-His6-TEV cleaved; C-SNAP kept, Cy3B-labelled; label: tethered on chip by stalled RNA polymerase

Row | Binder | Kd [nM]
1 | ACAAACAUUAUAUAUAAUACAAAC (ssRNA) [Id_ii_S3_P3E.3_K3.2_C3.2_[C-2A]_H3.2_A3.1_F3.1_T3.2_[T9A]_[A10T]] | 381
2 | ACAAACAUUAUAUAUAAAACAAAC (ssRNA) [Id_ii_S3_P3E.3_K3.2_C3.2_[C-2A]_H3.2_A3.1_F3.1_T3.2_[T9A]] | 868
3 | ACAAACAUUAUAUAUAUCACAAAC (ssRNA) [Id_ii_S3_P3E.3_K3.2_C3.2_[C-2A]_H3.2_A3.1_F3.1_T3.2_[A10C]] | 450
4 | ACAAACAUUAUAUAUAUUACAAAC (ssRNA) [Id_ii_S3_P3E.3_K3.2_C3.2_[C-2A]_H3.2_A3.1_F3.1_T3.2_[A10T]] | 33.2
5 | ACAAACAUUAUAUAUAUAACAAAC (ssRNA) [Id_ii_S3_P3E.3_K3.2_C3.2_[C-2A]_H3.2_A3.1_F3.1_T3.2] | 462
6 | UCUCUUUGUAUUUUAAUCUCUU (ssRNA) [Ib_S1_P5E.1_K5.1_C5.1_H5.1_A5.1_[A7T]_F5.1_[T9A]_T5.1] | 3.42
7 | ACAAACCGUAUAUAUAGAACAAAC (ssRNA) [Id_ii_S3_P3E.3_K3.2_C3.2_[T-1G]_H3.2_A3.1_F3.1_T3.2_[T9G]] | 366
8 | ACAAACCGUAUAUAUACCACAAAC (ssRNA) [Id_ii_S3_P3E.3_K3.2_C3.2_[T-1G]_H3.2_A3.1_F3.1_T3.2_[T9C]_[A10C]] | 1540
9 | ACAAACCGUAUAUAUAAGACAAAC (ssRNA) [Id_ii_S3_P3E.3_K3.2_C3.2_[T-1G]_H3.2_A3.1_F3.1_T3.2_[T9A]_[A10G]] | 796
10 | ACAAACCGUAUAUAUAAAACAAAC (ssRNA) [Id_ii_S3_P3E.3_K3.2_C3.2_[T-1G]_H3.2_A3.1_F3.1_T3.2_[T9A]] | 697
11 | ACAAACCCUAUAUAUAGUACAAAC (ssRNA) [Id_ii_S3_P3E.3_K3.2_C3.2_[T-1C]_H3.2_A3.1_F3.1_T3.2_[T9G]_[A10T]] | 392
12 | ACAAACCCUAUAUAUACCACAAAC (ssRNA) [Id_ii_S3_P3E.3_K3.2_C3.2_[T-1C]_H3.2_A3.1_F3.1_T3.2_[T9C]_[A10C]] | 614
13 | ACAAACCCUAUAUAUACUACAAAC (ssRNA) [Id_ii_S3_P3E.3_K3.2_C3.2_[T-1C]_H3.2_A3.1_F3.1_T3.2_[T9C]_[A10T]] | 45.5
14 | ACAAACCCUAUAUAUAUGACAAAC (ssRNA) [Id_ii_S3_P3E.3_K3.2_C3.2_[T-1C]_H3.2_A3.1_F3.1_T3.2_[A10G]] | 769
15 | ACAAACCCUAUAUAUAUUACAAAC (ssRNA) [Id_ii_S3_P3E.3_K3.2_C3.2_[T-1C]_H3.2_A3.1_F3.1_T3.2_[A10T]] | 32.7
16 | ACAAACCAUAUAUAUAGCACAAAC (ssRNA) [Id_ii_S3_P3E.3_K3.2_C3.2_[T-1A]_H3.2_A3.1_F3.1_T3.2_[T9G]_[A10C]] | 328

Row | Binder | Kd [nM]
17 | UCUCUUUGUAGUAUUGUCUCUU (ssRNA) [Ic_S1_P5E.1_K5.1_C5.1_H5.1_A5.1_[T5G]_F5.1_[A10G]_T5.1] | 81.1
18 | ACAAACCAUAUAUAUAAGACAAAC (ssRNA) [Id_ii_S3_P3E.3_K3.2_C3.2_[T-1A]_H3.2_A3.1_F3.1_T3.2_[T9A]_[A10G]] | 546
19 | ACAAACCAUAUAUAUAACACAAAC (ssRNA) [Id_ii_S3_P3E.3_K3.2_C3.2_[T-1A]_H3.2_A3.1_F3.1_T3.2_[T9A]_[A10C]] | 724
20 | ACAAACCAUAUAUAUAAAACAAAC (ssRNA) [Id_ii_S3_P3E.3_K3.2_C3.2_[T-1A]_H3.2_A3.1_F3.1_T3.2_[T9A]] | 1420
21 | ACAAACCUUAUAUAUAGCACAAAC (ssRNA) [Id_ii_S3_P3E.3_K3.2_C3.2_H3.2_A3.1_F3.1_T3.2_[T9G]_[A10C]] | 144
22 | ACAAACCUUAUAUAUACCACAAAC (ssRNA) [Id_ii_S3_P3E.3_K3.2_C3.2_H3.2_A3.1_F3.1_T3.2_[T9C]_[A10C]] | 845
23 | ACAAACCUUAUAUAUAACACAAAC (ssRNA) [Id_ii_S3_P3E.3_K3.2_C3.2_H3.2_A3.1_F3.1_T3.2_[T9A]_[A10C]] | 513
24 | ACAAACCUUAUAUAUAUGACAAAC (ssRNA) [Id_ii_S3_P3E.3_K3.2_C3.2_H3.2_A3.1_F3.1_T3.2_[A10G]] | 632
25 | ACAAACCUUAUAUAUAUCACAAAC (ssRNA) [Id_ii_S3_P3E.3_K3.2_C3.2_H3.2_A3.1_F3.1_T3.2_[A10C]] | 396
26 | ACAAACCUUAUAUAUAUUACAAAC (ssRNA) [Id_ii_S3_P3E.3_K3.2_C3.2_H3.2_A3.1_F3.1_T3.2_[A10T]] | 28.1
27 | ACAAACCUUAUAUAUAUAACAAAC (ssRNA) [Id_ii_S3_P3E.3_K3.2_C3.2_H3.2_A3.1_F3.1_T3.2] | 500
28 | UCUCUUUGUAGUAUUAUCUCUU (ssRNA) [Ia_S1_P5E.1_K5.1_C5.1_H5.1_A5.1_[T5G]_F5.1_T5.1] | 30
29 | UCUCUUUGUAAUAUUGUCUCUU (ssRNA) [Ic_S1_P5E.1_K5.1_C5.1_H5.1_A5.1_[T5A]_F5.1_[A10G]_T5.1] | 14.9
30 | ACAAACGGACACUAUACUACAAAC (ssRNA) [Id_ii_S3_P3E.4_K3.3_C3.2_[C-2G]_[T-1G]_H3.3_A3.1_F3.1_T3.2_[T9C]_[A10T]] | 2160
31 | ACAAACGGACACUAUAAAACAAAC (ssRNA) [Id_ii_S3_P3E.4_K3.3_C3.2_[C-2G]_[T-1G]_H3.3_A3.1_F3.1_T3.2_[T9A]] | > 2300
32 | ACAAACGGACACUAUAUUACAAAC (ssRNA) [Id_ii_S3_P3E.4_K3.3_C3.2_[C-2G]_[T-1G]_H3.3_A3.1_F3.1_T3.2_[A10T]] | 1380
